Tests used:
[1] = biological target: M2-1 fused to the N2 complementation fragment of NanoLuc (human respiratory syncytial virus, strain Long); test: split reporter (BiFC, NanoBiT); NanoLuc two-hybrid (N2H) complementation in HEK293T cells, 24 h after transfection; lysates incubated 1 h with 100 µg/ml RNAse A; normalized luminescence ratio (NLR) over control protein pairs
[2] = biological target: M2-1 fused to GFP, expressed by the recombinant virus RSV-M2-1-GFP (human respiratory syncytial virus, strain Long); test: co-IP; GFP-Trap beads on lysates of HEp-2 cells infected with RSV-M2-1-GFP, 14 h p.i., without RNAse in the lysis; immunoblot
[3] = biological target: M2-1 fused to GFP, expressed by the recombinant virus RSV-M2-1-GFP (human respiratory syncytial virus, strain Long); test: co-IP; GFP-Trap beads on lysates of HEp-2 cells infected with RSV-M2-1-GFP or RSV-GFP (control), 14 h p.i., with RNAse (RNAse A or broad-spectrum nuclease) in the lysis; Tris 10 mM pH 7.5, NaCl 150 mM, IGEPAL CA-630 0.5%; overnight at 4 °C; immunoblot

## PABPC1 fragment 492-636 fused to the N1 fragment of NanoLuc (from UniProt P11940 492-636) (domain or fragment)
[1]
  NLR as percent of the signal of the whole PABPC1: 50%

## cytoplasmic polyA-binding protein 1 (PABPC1), endogenous in HEp-2 cells (from UniProt P11940 1-636) (natural protein)
[2]
  percent of total PABPC1 in the input co-immunoprecipitated: 5.71%
[3]
  percent of total PABPC1 in the input co-immunoprecipitated: 2.08%
